The target of experiment [1] is human CD137 expressed on cells (human, UniProt Q07011 24-255). The experiment in a line: cell-based or functional assay.
The target of experiment [2] is T1, Human CD137 ECD (human).
T1 construct: also called recombinant human CD137
The experiment in a line: SPR (Biacore T200), 37 degrees C, antibody captured by anti-human Fc on CM4 chip, recombinant human CD137 as analyte, 1:1 model.
T1 sequence (chain, as listed by the source limits assumed): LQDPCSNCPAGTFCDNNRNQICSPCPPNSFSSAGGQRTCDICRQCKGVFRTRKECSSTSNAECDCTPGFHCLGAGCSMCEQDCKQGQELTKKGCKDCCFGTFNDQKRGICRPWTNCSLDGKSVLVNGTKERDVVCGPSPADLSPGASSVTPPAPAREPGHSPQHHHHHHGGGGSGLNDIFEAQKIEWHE
Method: (§1) (15-2) Evaluation of the Binding of GPC3/CD3/Human CD137 Trispecific Antibodies Binding Affinity of Trispecific Antibodies to Human CD3 and CD137 were Assessed at 37 Degrees C. Using Binding affinity of trispecific antibodies to human CD3 and CD137 were assessed at 37 degrees C. using Biacore T200 instrument (GE Healthcare). Anti-human Fc antibody (GE Healthcare) was immobilized onto all flow cells of a CM4 sensor chip using amine coupling kit (GE Healthcare). Antibodies were captured onto the anti-Fc sensor surfaces, then recombinant human CD3 or CD137 was injected over the flow cell. All antibodies and analytes were prepared in ACES pH 7.4 containing 20 mM ACES, 150 mM NaCl, 0.05% Tween 20, 0.005% NaN3. Sensor surface was regenerated each cycle with 3M MgCl2.

The target in experiment [3] is T2, Human CD3eg linker (human).
T2 construct: also called recombinant human CD3
T2 chain: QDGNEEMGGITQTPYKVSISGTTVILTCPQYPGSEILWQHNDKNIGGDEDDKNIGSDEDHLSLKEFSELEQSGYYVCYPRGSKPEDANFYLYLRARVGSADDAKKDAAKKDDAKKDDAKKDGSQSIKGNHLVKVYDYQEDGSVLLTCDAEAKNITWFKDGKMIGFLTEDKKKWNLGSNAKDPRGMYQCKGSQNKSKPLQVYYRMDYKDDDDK
The experiment in a line: SPR (Biacore T200), 37 degrees C, antibody captured by anti-human Fc on CM4 chip, recombinant human CD3 as analyte, 1:1 model. In general terms: Surface plasmon resonance follows binding to a sensor surface in real time, without labels.
Method: as §1

Experiment [4] concerns the target T1, Human CD137 ECD. The experiment in a line: SPR (Biacore T200), 37 degrees C, antibody captured by anti-human Fc on CM4 chip, recombinant human CD137 as analyte, 1:1 model; 37 degrees C.
Method: as §1
Experiment [5] deals with T3, Extracellular domain (24-186) of human CD137 (human, UniProt Q07011 24-186).
T3 construct: Fc cleaved off; also called hCD137; CD137 extracellular domain
The experiment in a line: complex formation, gel filtration.
Method: Purified CD137 was mixed with GST-tag fused Endoglycosidase F1(in-house) for deglycosylation, followed by purification of CD137 using gel filtration column (HiLoad 16/600 Superdex 200 pg, GE healthcare) and Protein A column (HiTrap MabSelect SuRe 1 ml, GE Healthcare). […] The ternary complex was purified by gel filtration chromatography (Superdex200 10/300 increase, GE Healthcare) using a column equilibrated with 25 mM HEPES pH 7.3, 100 mM NaCl.

Experiment [6] addresses T4, Human CD3eg linker (human).
T4 construct: Single chain: CD3 epsilon and gamma subunits joined by a 29-mer linker, Flag-tag at the C-terminus; also called recombinant human CD3
T4 chain: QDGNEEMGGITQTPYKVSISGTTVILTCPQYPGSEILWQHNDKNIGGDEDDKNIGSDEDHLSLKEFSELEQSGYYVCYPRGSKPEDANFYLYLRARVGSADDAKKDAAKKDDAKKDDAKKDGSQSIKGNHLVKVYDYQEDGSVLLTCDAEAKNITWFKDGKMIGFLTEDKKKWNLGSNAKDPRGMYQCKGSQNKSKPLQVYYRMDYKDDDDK
The experiment in a line: SPR Biacore T200, 37 C, Ab captured on anti-human Fc, antigen as analyte.
Method: (§2) Binding affinity of trispecific antibodies to human CD3 and CD137 were assessed at 37 degrees C. using Biacore T200 instrument (GE Healthcare). Anti-human Fc antibody (GE Healthcare) was immobilized onto all flow cells of a CM4 sensor chip using amine coupling kit (GE Healthcare). Antibodies were captured onto the anti-Fc sensor surfaces, then recombinant human CD3 or CD137 was injected over the flow cell. All antibodies and analytes were prepared in ACES pH 7.4 containing 20 mM ACES, 150 mM NaCl, 0.05% Tween 20, 0.005% NaN3. Sensor surface was regenerated each cycle with 3M MgCl₂.

For experiment [7], the target named is T5, Human CD137 ECD (human).
T5 construct: also called human CD137 extracellular domain; recombinant human CD137
Described as above.
T5 sequence (chain, as listed by the source limits assumed): as the sequence (chain, as listed by the source limits assumed) above
Method: as §2

Experiment [8] has as its target T6, biotin-labeled human CD137 fused to human IgG1 Fc fragment (human, UniProt Q07011 24-186, biotin-labeled).
T6 construct: also called human CD137-Fc; biotin-human CD137-Fc; not shown: human IgG1 Fc fragment
The experiment in a line: ELISA on streptavidin beads, purified IgG.

Experiment [9] has as its target T6, biotin-labeled human CD137 fused to …. The experiment in a line: bead ELISA, 1250 ng IgG, S/N over biotin-human Fc. (In general: ELISA stands for enzyme-linked immunosorbent assay.)
The target of experiment [10] is T7, biotin-labeled cynomolgus monkey CD137 fused to human IgG1 Fc fragment (cynomolgus monkey; human, UniProt Q07011 24-186, limits assumed, biotin-labeled).
T7 construct: also called cyno CD137-Fc; not shown: human IgG1 Fc fragment
T7 chain: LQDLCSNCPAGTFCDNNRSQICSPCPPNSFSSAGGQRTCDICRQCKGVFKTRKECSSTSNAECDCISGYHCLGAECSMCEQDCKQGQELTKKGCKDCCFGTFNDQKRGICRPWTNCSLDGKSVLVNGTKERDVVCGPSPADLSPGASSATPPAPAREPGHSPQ
The experiment in a line: ELISA on streptavidin beads.

These results are taken from patent US20210388087A1 (Chugai, published 2021).

Broadly, the Kd is a measure of binding affinity in units of concentration. As usually defined, the koff is the rate constant with which the complex falls apart. Broadly, the kon is a measure of how fast the partners come together.

T6 sequence (Q07011 24-186 limits assumed): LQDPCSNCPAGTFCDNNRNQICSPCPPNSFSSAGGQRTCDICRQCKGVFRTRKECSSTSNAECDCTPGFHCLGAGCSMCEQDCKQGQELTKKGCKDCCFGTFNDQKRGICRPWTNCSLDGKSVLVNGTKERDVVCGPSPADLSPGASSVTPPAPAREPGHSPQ
human CD137 expressed on cells, sequence (Q07011 24-255): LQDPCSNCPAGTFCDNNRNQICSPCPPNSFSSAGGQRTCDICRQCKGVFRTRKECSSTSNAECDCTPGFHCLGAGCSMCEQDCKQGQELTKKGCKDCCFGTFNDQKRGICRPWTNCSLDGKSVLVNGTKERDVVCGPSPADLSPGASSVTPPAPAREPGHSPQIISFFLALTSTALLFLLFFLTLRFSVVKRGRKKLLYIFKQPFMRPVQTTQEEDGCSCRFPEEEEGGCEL
T3 sequence (Q07011 24-186 limits assumed): as the sequence (Q07011 24-186 limits assumed) above

B1: GPC3/CD137×CD3 trispecific antibody (other)
VH 1: QVQLQQWGAGLLKPSETLSLTCAVYGGSFSGYYWSWIRQSPEKGLEWIGEINHGGYVTYNPSLESRVTISVDTSKNQFSLKLSSVTAADTAVYYCARDYGPGNYDWYFDLWGRGTLVTVSS
VL 1: EIVLTQSPATLSLSPGERATLSCRASQSVSSYLAWYQQKPGQAPRLLIYDASNRATGIPARFSGSGSGTDFTLTISSLEPEDFAVYYCQQRSNWPPALTFGGGTKVEIK
VH 2: QVQLVESGGGLVQPGRSLRLSCAASGFTFSNAWMHWVRQAPGKGLEWVAQIKDRANSYNTYYAESVKGRFTISRDDSKNSIYLQMNSLKTEDTAVYYCRYVHYTTYAGSSFSYGVDAWGQGTTVTVSS
VL 2: DIVMTQSPLSLPVTPGEPASISCRSSQPLVHSNRNTYLHWYQQKPGQAPRLLIYKVSNRFSGVPDRFSGSGSGTDFTLKISRVEAEDVGVYYCGQGTQVPYTFGQGTKLEIK
VH 3: QVQLVQSGAEVKKPGASVTVSCKASGYTFTDYEMHWIRQPPGEGLEWIGAIDGPTPDTAYSEKFKGRVTLTADKSTSTAYMELSSLTSEDTAVYYCTRFYSYTYWGQGTLVTVSS
VL 3: DIVMTQSPLSLPVTPGEPASISCRSSQPLVHSNRNTYLHWYQQKPGQAPRLLIYKVSNRFSGVPDRFSGSGSGTDFTLKISRVEAEDVGVYYCGQGTQVPYTFGQGTKLEIK
In the case of B1, in [1], the “Luminescence against CD137 positive cells relative to that against GPC3 positive cells, 1 nM” value is about 107% and the “Luminescence against CD137 positive cells relative to that against GPC3 positive cells, 10 nM” value is about 128%.

B2: GPC3/CD137 × CD3 trispecific antibody (antibody, V domains shown)
VH 1: QVQLQQWGAGLLKPSETLSLTCAVYGGSFSGYYWSWIRQSPEKGLEWIGEINHGGYVTYNPSLESRVTISVDTSKNQFSLKLSSVTAADTAVYYCARDYGPGNYDWYFDLWGRGTLVTVSS
VL 1: EIVLTQSPATLSLSPGERATLSCRASQSVSSYLAWYQQKPGQAPRLLIYDASNRATGIPARFSGSGSGTDFTLTISSLEPEDFAVYYCQQRSNWPPALTFGGGTKVEIK
VH 2: QVQLVESGGGLVQPGRSLRLSCAASGFTFSNAWMHWVRQAPGKGLEWVAQIKDRANSYNTYYAESVKGRFTISRDDSKNSIYLQMNSLKTEDTAVYYCRYVHYTTYAGSSFSYGVDAWGQGTTVTVSS
VL 2: DIVMTQSPLSLPVTPGEPASISCRSSQPLVHSNRNTYLHWYQQKPGQAPRLLIYKVSNRFSGVPDRFSGSGSGTDFTLKISRVEAEDVGVYYCGQGTQVPYTFGQGTKLEIK
VH 3: QVQLVQSGAEVKKPGASVTVSCKASGYTFTDYEMHWIRQPPGEGLEWIGAIDGPTPDTAYSEKFKGRVTLTADKSTSTAYMELSSLTSEDTAVYYCTRFYSYTYWGQGTLVTVSS
VL 3: DIVMTQSPLSLPVTPGEPASISCRSSQPLVHSNRNTYLHWYQQKPGQAPRLLIYKVSNRFSGVPDRFSGSGSGTDFTLKISRVEAEDVGVYYCGQGTQVPYTFGQGTKLEIK
notes: Trispecific mAb AB made by Fab-arm exchange from mAb A (CrossMab, two Fv per arm: Fv A1 and Fv A2) and mAb B (conventional IgG, Fv B); Fc gamma R-silent, deglycosylated Fc; also called GPC3/CD137xCD3
With B2, in the experiment with Human CD137 ECD [2], the Kd was 37.7 nM and the off-rate (koff) came out at 0.0206 s⁻¹. For the same molecule, in the experiment with Human CD3eg linker [3], the dissociation constant (Kd) amounted to 19.7 nM, the koff is 0.00161 s⁻¹ and the kon turned out to be 81800 M⁻¹ s⁻¹. The kon with Human CD137 ECD [4] was 547000 M⁻¹ s⁻¹.

B3: H0868L0581 Fab (Fab, V domains shown)
VH: QVQLVESGGGLVQPGRSLRLSCAASGFKFSNVWMHWVRQAPGKGLEWVAQIKDKYNAYAAYYAPSVKGRFTISRDDSKNSIYLQMNSLKTEDTAVYYCHYVHYASASTLLPAFGVDAWGQGTTVTVSS
VL: DIVMTQSPLSLPVTPGEPASISCQPSQEVVHMNRNTYLHWYQQKPGQAPRLLIYKVSNRFPGVPDRFSGSGSGTDFTLKISRVEAEDVGVYYCAQGTSHPFTFGQGTKLEIK
notes: Fab made by limited Lys-C digestion of the bivalent antibody; also called H0868L581; Fab fragment of H0868L0581
Turning to B3, in experiment [5], the binding result is recorded as “binds”.

B4: GPC3/CD137xCD3 (bispecific antibody, V domains shown)
VH 1: QVQLQQWGAGLLKPSETLSLTCAVYGGSFSGYYWSWIRQSPEKGLEWIGEINHGGYVTYNPSLESRVTISVDTSKNQFSLKLSSVTAADTAVYYCARDYGPGNYDWYFDLWGRGTLVTVSS
VL 1: EIVLTQSPATLSLSPGERATLSCRASQSVSSYLAWYQQKPGQAPRLLIYDASNRATGIPARFSGSGSGTDFTLTISSLEPEDFAVYYCQQRSNWPPALTFGGGTKVEIK
VH 2: QVQLVESGGGLVQPGRSLRLSCAASGFTFSNAWMHWVRQAPGKGLEWVAQIKDRANSYNTYYAESVKGRFTISRDDSKNSIYLQMNSLKTEDTAVYYCRYVHYTTYAGSSFSYGVDAWGQGTTVTVSS
VL 2: DIVMTQSPLSLPVTPGEPASISCRSSQPLVHSNRNTYLHWYQQKPGQAPRLLIYKVSNRFSGVPDRFSGSGSGTDFTLKISRVEAEDVGVYYCGQGTQVPYTFGQGTKLEIK
VH 3: QVQLVQSGAEVKKPGASVTVSCKASGYTFTDYEMHWIRQPPGEGLEWIGAIDGPTPDTAYSEKFKGRVTLTADKSTSTAYMELSSLTSEDTAVYYCTRFYSYTYWGQGTLVTVSS
VL 3: DIVMTQSPLSLPVTPGEPASISCRSSQPLVHSNRNTYLHWYQQKPGQAPRLLIYKVSNRFSGVPDRFSGSGSGTDFTLKISRVEAEDVGVYYCGQGTQVPYTFGQGTKLEIK
notes: Fc gamma R silent Fc; also called GPC3/CD137 x CD3 trispecific antibody (2+1)
With B4, in the experiment with Human CD3eg linker [6], the Kd stood at 19.7 nM, the koff is 0.00161 s⁻¹ and the kon was 81800 M⁻¹ s⁻¹. In the experiment with Human CD137 ECD [7], this molecule gave a dissociation constant (Kd) of 37.7 nM, a dissociation rate constant (koff) of 0.0206 s⁻¹ and a kon of 547000 M⁻¹ s⁻¹.

B5: dBBDu127 (antibody, human IgG1, V domains shown)
VH: QVQLVESGGGLVQPGRSLRLSCAASGFTFSNAWMHWVRQAPGKGLEWVAQIKDRGQQYNAYYAPSVKGRFTISRDDSKNSIYLQMNSLKTEDTAVYYCHYVHYASASSVLPGYGVDAWGQGTTVTVSS
VL: DIVMTQSPLSLPVTPGEPASISCRSSQSLVHSNRNTYLHWYQQKPGQAPRLLIYKVSNRFSGVPDRFSGSGSGTDFTLKISRVEAEDVGVYYCGQGTQVPYTFGQGTKLEIK
notes: human IgG1; GLS3000 light chain; also called DXDU01_3 #051; DXDU01_3_#051
As to B5, in experiment [8], the binding result is listed as “binds”.

B6: dBBDu126 (antibody, human IgG1, V domains shown)
VH: QVQLVESGGGLVQPGRSLRLSCAASGFTFSIAWMHWVRQAPGKGLEWVAQIKDRVNAYEAYYAPSVKGRFTISRDDSKNSIYLQMNSLKTEDTAVYYCRYVHYASYYDLLGYGGVDAWGQGTTVTVSS
VL: DIVMTQSPLSLPVTPGEPASISCRSSQSLVHSNRNTYLHWYQQKPGQAPRLLIYKVSNRFSGVPDRFSGSGSGTDFTLKISRVEAEDVGVYYCGQGTQVPYTFGQGTKLEIK
notes: human IgG1; GLS3000 light chain; also called DADU01_3 #001; DADU01_3_#001
B6: the binding result is given as “binds” in [9] and “no binding (tested: 25 micro L of 50 ng/micro L purified IgG)” in [10].
